From publication PMC3093132 come the findings set out here.

This data set has as its target hExo1 catalytic domain D173A (Homo sapiens, UniProt Q9UQ84 1-352, D173A). Nature of the data set: crystal structure.

hExo1 catalytic domain D173A, sequence (Q9UQ84 1-352 D173A): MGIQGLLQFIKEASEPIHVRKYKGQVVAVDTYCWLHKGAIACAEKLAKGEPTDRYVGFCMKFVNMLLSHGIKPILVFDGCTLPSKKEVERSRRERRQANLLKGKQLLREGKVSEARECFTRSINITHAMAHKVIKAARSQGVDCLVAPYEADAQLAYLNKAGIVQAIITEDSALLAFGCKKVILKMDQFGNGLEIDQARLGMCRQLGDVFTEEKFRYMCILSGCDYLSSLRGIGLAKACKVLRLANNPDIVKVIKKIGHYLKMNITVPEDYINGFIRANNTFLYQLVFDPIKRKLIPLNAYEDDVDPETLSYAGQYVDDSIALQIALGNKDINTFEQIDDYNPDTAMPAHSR

B1: 5'-recessed-end substrate (gap mimic) (dsDNA)
DNA 1: TCGACTAGCG
DNA 2: CGCTAGTCGACAC
modifications: 5' phosphate on strand 1
As to B1, the binding result is “binds”.
